Experimental data: the Human Domainome abundance scans (Beltran et al. 2025)
± gives the uncertainty stated by the source.

B1: Bromodomain adjacent to zinc finger domain protein 2B, residues 1927 to 1982; numbered along this chain, Q9UIF8 (parent)
chain: KSIMKVYCQICRKGDNEELLLLCDGCDKGCHTYCHRPKITTIPDGDWFCPACIAKA

Variants of: B1
Experiment: abundance fitness (aPCA) (normalised: wild type 0, dead -1); higher = more abundant; growth selection in yeast, the domain comes from the species named
Conditions: Homo sapiens

Row | Variant | abundance fitness
1 | KSIMKVYCQICRKGDNEELLLLCDGCDKGCHTYCHRPKITTYPDGDWFCPACIAKA | -0.093 ± 0.18
2 | KSIMKVYCQICRKGDNEELLLLCDGCDKGCHTYCHRPKITTHPDGDWFCPACIAKA | -0.235 ± 0.13
3 | KSIMKVYCQICRKGDNEELLLLCDGCDKGCHTYCHRPKITTDPDGDWFCPACIAKA | -0.209 ± 0.24
4 | KSIMKVYCQICRKGDNEELLLLCDGCDKGCHTYCHRPKITTVPDGDWFCPACIAKA | -0.039 ± 0.099
5 | KSIMKVYCQICRKGDNEELLLLCDGCDKGCHTYCHRPKITTFPDGDWFCPACIAKA | -0.007 ± 0.2
6 | KSIMKVYCQICRKGDNEELLLLCDGCDKGCHTYCHRPKITTTPDGDWFCPACIAKA | 0.011 ± 0.1
7 | KSIMKVYCQICRKGDNEELLLLCDGCDKGCHTYCHRPKITTKPDGDWFCPACIAKA | 0.009 ± 0.1
8 | KSIMKVYCQICRKGDNEELLLLCDGCDKGCHTYCHRPKITTGPDGDWFCPACIAKA | -0.048 ± 0.077
9 | KSIMKVYCQICRKGDNEELLLLCDGCDKGCHTYCHRPKITTLPDGDWFCPACIAKA | -0.015 ± 0.08
10 | KSIMKVYCQICRKGDNEELLLLCDGCDKGCHTYCHRPKITTPPDGDWFCPACIAKA | -0.043 ± 0.11
11 | KSIMKVYCQICRKGDNEELLLLCDGCDKGCHTYCHRPKITTAPDGDWFCPACIAKA | 0.042 ± 0.1
12 | KSIMKVYCQICRKGDNEELLLLCDGCDKGCHTYCHRPKITTSPDGDWFCPACIAKA | -0.065 ± 0.085
13 | KSIMKVYCQICRKGDNEELLLLCDGCDKGCHTYCHRPKITTRPDGDWFCPACIAKA | -0.054 ± 0.073
14 | KSIMKVYCQICRKGDNEELLLLCDGCDKGCHTYCHRPKITTIPDGDDFCPACIAKA | -0.15 ± 0.11
15 | KSIMKVYCQICRKGDNEELLLLCDGCDKGCHTYCHRPKITTIPDGDQFCPACIAKA | -0.203 ± 0.12
16 | KSIMKVYCQICRKGDNEELLLLCDGCDKGCHTYCHRPKITTIPDGDEFCPACIAKA | -0.338 ± 0.092
17 | KSIMKVYCQICRKGDNEELLLLCDGCDKGCHTYCHRPKITTIPDGDNFCPACIAKA | -0.186 ± 0.17
18 | KSIMKVYCQICRKGDNEELLLLCDGCDKGCHTYCHRPKITTIPDGDHFCPACIAKA | -0.169 ± 0.22
19 | KSIMKVYCQICRKGDNEELLLLCDGCDKGCHTYCHRPKITTIPDGDRFCPACIAKA | -0.115 ± 0.073
20 | KSIMKVYCQICRKGDNEELLLLCDGCDKGCHTYCHRPKITTIPDGDTFCPACIAKA | -0.213 ± 0.1
21 | KSIMKVYCQICRKGDNEELLLLCDGCDKGCHTYCHRPKITTIPDGDFFCPACIAKA | -0.345 ± 0.17
22 | KSIMKVYCQICRKGDNEELLLLCDGCDKGCHTYCHRPKITTIPDGDIFCPACIAKA | -0.092 ± 0.19
23 | KSIMKVYCQICRKGDNEELLLLCDGCDKGCHTYCHRPKITTIPDGDAFCPACIAKA | -0.168 ± 0.087
24 | KSIMKVYCQICRKGDNEELLLLCDGCDKGCHTYCHRPKITTIPDGDGFCPACIAKA | -0.289 ± 0.072

Row | Variant | abundance fitness
25 | KSIMKVYCQICRKGDNEELLLLCDGCDKGCHTYCHRPKITTIPDGDCFCPACIAKA | -0.287 ± 0.12
26 | KSIMKVYCQICRKGDNEELLLLCDGCDKGCHTYCHRPKITTIPDGDPFCPACIAKA | -0.165 ± 0.11
27 | KSIMKVYCQICRKGDNEELLLLCDGCDKGCHTYCHRPKITTIPDGDKFCPACIAKA | -0.127 ± 0.11
28 | KSIMKVYCQICRKGDNEELLLLCDGCDKGCHTYCHRPKITTIPDGDLFCPACIAKA | -0.312 ± 0.083
29 | KSIMKVYCQICRKGDNEELLLLCDGCDKGCHTYCHRPKITTISDGDWFCPACIAKA | 0.053 ± 0.1
30 | KSIMKVYCQICRKGDNEELLLLCDGCDKGCHTYCHRPKITTIMDGDWFCPACIAKA | -0.269 ± 0.17
31 | KSIMKVYCQICRKGDNEELLLLCDGCDKGCHTYCHRPKITTICDGDWFCPACIAKA | -0.095 ± 0.14
32 | KSIMKVYCQICRKGDNEELLLLCDGCDKGCHTYCHRPKITTIQDGDWFCPACIAKA | 0.024 ± 0.12
33 | KSIMKVYCQICRKGDNEELLLLCDGCDKGCHTYCHRPKITTIWDGDWFCPACIAKA | -0.188 ± 0.14
34 | KSIMKVYCQICRKGDNEELLLLCDGCDKGCHTYCHRPKITTINDGDWFCPACIAKA | -0.245 ± 0.23
35 | KSIMKVYCQICRKGDNEELLLLCDGCDKGCHTYCHRPKITTIKDGDWFCPACIAKA | -0.08 ± 0.15
36 | KSIMKVYCQICRKGDNEELLLLCDGCDKGCHTYCHRPKITTIADGDWFCPACIAKA | -0.006 ± 0.083
37 | KSIMKVYCQICRKGDNEELLLLCDGCDKGCHTYCHRPKITTILDGDWFCPACIAKA | -0.163 ± 0.1
38 | KSIMKVYCQICRKGDNEELLLLCDGCDKGCHTYCHRPKITTIEDGDWFCPACIAKA | -0.041 ± 0.11
39 | KSIMKVYCQICRKGDNEELLLLCDGCDKGCHTYCHRPKITTIRDGDWFCPACIAKA | -0.083 ± 0.081
40 | KSIMKVYCQICRKGDNEELLLLCDGCDKGCHTYCHRPKITTIHDGDWFCPACIAKA | -0.217 ± 0.14
41 | KSIMKVYCQICRKGDNEELLLLCDGCDKGCHTYCHRPKITTIGDGDWFCPACIAKA | -0.016 ± 0.079
42 | KSIMKVYCQICRKGDNEELLLLCDGCDKGCHTYCHRPKITTIIDGDWFCPACIAKA | 0.092 ± 0.27
43 | KSIMKVYCQICRKGDNEELLLLCDGCDKGCHTYCHRPKITTIFDGDWFCPACIAKA | -0.451 ± 0.17
44 | KSIMKVYCQICRKGDNEELLLLCDGCDKGCHTYCHRPKITTITDGDWFCPACIAKA | -0.003 ± 0.13
45 | KSIMKVYCQICRKGDNEELLLLCDGCDKGCHTYCHRPKITTIDDGDWFCPACIAKA | -0.071 ± 0.2
46 | KSIMKVYCQICRKGDNEELLLLCDGCDKGCHTYCHRPKITTIYDGDWFCPACIAKA | -0.263 ± 0.19
47 | KSIMKVYCQICRKGDNEELLLLCDGCDKGCHTYCHRPKITTIVDGDWFCPACIAKA | -0.127 ± 0.084
